Experimental data from the DeepSol protein solubility set.

Assay: soluble on expression in E. coli; label from the status in PepcDB or PDB records

| Sequence | soluble on expression in E. coli |
| --- | --- |
| MAHHHHHHMPARWHNKQKKGSNGHKRPSTGGNGSAARRDIGFIPPGASAVQNSSAHHADTFMYRFPQNFPVPRRLRHAPTSLVEAVNDFHFAMMNDRPRNEFYYELLKRHVTPETGVLEIGAGSGLLSLMAAQLGAKWVVAVEGSAEMAKLARANICANKMEHKVTVLHMLSTELTLRHLPDRPDVMVSEILGTLLLGESALDYIADVRERLLKPTTKIIPQHGTQYAVPIECDTLRDVCAVSGWKGLELSHMTALQDTVSIVFAKQYGFRMSSVPFRRLSEPIALFSVDFASAVRRDIPMNLKLDVKATSSGTAHAMLYYWKAFDGDLVMSTDPADTLNNFPRDMQWGQALQLLDAANGPFPTPVVFTEGEELKFQCHFSSDRVTVHIHLCPTAEAAASPAKTTPTDNDAIKTEKEACEKVNKGKK | soluble |
| MTNHPIQGLMTTAMENLKQMIDVNTIIGDPVETPDGSVILTVSKVGFGFAAGGSEFMLDGQQNGHQGAQADGNGHPFGGGSGGGVSITPIAFLVVNSSGVKLLHLDESTHLYEKILDVAPQAFEKIQAMLKKNKKDGAAGQKADDFDI | not soluble |
| MGSDKIHHHHHHMKKATLKDIAEYFGVSISTVSRALSGKPGVSSELREKILEKAREIGYTPNLMALGLKKGNTRTVGVLIPELSANFFADIVSSIEKSLFHLGYRLILCSTDDDPVKEREHLQLLLDQKVEGILSAPVNVKENKDIYNSIINHFKIPVVFFDRLVEGVDSDFVISDNREGMEILVNYLVKHGHKKIGLIHPLRGSFTGEERLKGFLLFKDSIEIREEWIRDGRSSEQGGYESFLRIMTSQERPTAIVIGNNLMTLGVLKAAKELNIKIPEDISLVSFDDAYWNEIFDPPITCVRQDPQQIGLIAATILLDRMKNRKKPSPRMQVVLKVKFVERSSVRTIKTLKDFS | not soluble |
| MGHHHHHHSHMAFRQPNTKELKVIRKALSYYGSGDFLSHYALLVKEGEKKEVYGVSKELYGVIGELNPHYAGVKIGEVGRRFRFSLEGTFWLLRNSRNRVWVNERGEMLFLYGRDIFAGSVERASEFGENSIVFVCNRFDDVLGIGRSRHSSDELSNLPEDKVFVENLVDRGEYLRH | soluble |
| MGEETIAAIATGAGEGGIGIVRISGADALQVAERIFRPRRGRPLGCRRSHTVTYGWVVTPGGDRIDEALALVMRGPHSYTGEDVVELQCHGGQLAVRRVLEQALQAGARLAEPGEFTRRAFLNGRLDLSQAEAVVDLIRAKTDRAMAAAVAHLGGSLRQAVGRIRERLMEMMAHLEADIDFPELELEVQTREEVAAGCGWCLGEVERLLGGARTGRILREGLRAVLAGRPNVGKSSLLNRLVRENRAIVTPIPGTTRDVIAEWVELGGVPVQLFDTAGLRPTDDPVERIGVARTHEALAQAHLVLVVVDAAAGLGPEDREWISQLPQGAARVGVANKIDLNPAFELSALREALGGAPVVGVSAETGEGLDALEAEVARVAGAFDASEELLVNTRQAEAIRRARNHLRDAQATLESGLGDELVAIDLRAAWMALGEVTGETAGEELLDQIFSRFCIGK | soluble |
| MAESLITKKAIAGGLMELCQHKRFEKISIADITNICGLNRQTFYYHFTDKYDLLTWTYENDFFHCLADGITLENWDKHVLKMLESIKENADFYKNTVSADASILSFCFSKLTNSLFMDLFEKIDTNGAVNEADRVFYAEFFSYGCSGVLIKWITRGFKEAPETIANQLFRLAKDTEFLANSMYRENLEHHHHHH | soluble |
| TSLFAQEIRLSKRHEEIVSQRLMLLQQMENKLGDQHTEKASQLQTVETAFKRNLSLLKDIEAAEKSLQTRIHPLPRPEVVSLETRYWASV | soluble |
| MAHHHHHHMLTSTAYGMELQARAIAPFYHSSNNSSSTHRFVAGTACFAGGNVIRLLTFQEESQLLECTATWSHEEEIFGLWSSPSVAGPSLLAVGASSYCRIFRVSDDVSGELEPVVNFNAAAAQVLWDLEGLQNEVKLISEDSLRIYSLTEGKMGEEIGRFRVDGCAELRCAALDPHHSSVCLAAGEGIGIAVIDTRRKGPIVMPNTTTLHGLGMIQSIDFSNAREGLFMTAGTDGVIMWHDFRMDGEKSVVERRGYLDAHDHCVQRSLFNPFHDELLISCGSDHTLKLWDTSKKGADGECAVCVSKLSDFAESVVACCWSNSNPWVFAGLSYNGRVLVDSVPEECKMQFIGKEG | not soluble |
